Assay results taken from patent US20250277199, “NOVEL CRISPR-CAS NUCLEASES FROM METAGENOMES” (Brain Biotech AG, published 2025).

Target: T1, BMC04 (uncultured bacterium (metagenome))
T1 chain: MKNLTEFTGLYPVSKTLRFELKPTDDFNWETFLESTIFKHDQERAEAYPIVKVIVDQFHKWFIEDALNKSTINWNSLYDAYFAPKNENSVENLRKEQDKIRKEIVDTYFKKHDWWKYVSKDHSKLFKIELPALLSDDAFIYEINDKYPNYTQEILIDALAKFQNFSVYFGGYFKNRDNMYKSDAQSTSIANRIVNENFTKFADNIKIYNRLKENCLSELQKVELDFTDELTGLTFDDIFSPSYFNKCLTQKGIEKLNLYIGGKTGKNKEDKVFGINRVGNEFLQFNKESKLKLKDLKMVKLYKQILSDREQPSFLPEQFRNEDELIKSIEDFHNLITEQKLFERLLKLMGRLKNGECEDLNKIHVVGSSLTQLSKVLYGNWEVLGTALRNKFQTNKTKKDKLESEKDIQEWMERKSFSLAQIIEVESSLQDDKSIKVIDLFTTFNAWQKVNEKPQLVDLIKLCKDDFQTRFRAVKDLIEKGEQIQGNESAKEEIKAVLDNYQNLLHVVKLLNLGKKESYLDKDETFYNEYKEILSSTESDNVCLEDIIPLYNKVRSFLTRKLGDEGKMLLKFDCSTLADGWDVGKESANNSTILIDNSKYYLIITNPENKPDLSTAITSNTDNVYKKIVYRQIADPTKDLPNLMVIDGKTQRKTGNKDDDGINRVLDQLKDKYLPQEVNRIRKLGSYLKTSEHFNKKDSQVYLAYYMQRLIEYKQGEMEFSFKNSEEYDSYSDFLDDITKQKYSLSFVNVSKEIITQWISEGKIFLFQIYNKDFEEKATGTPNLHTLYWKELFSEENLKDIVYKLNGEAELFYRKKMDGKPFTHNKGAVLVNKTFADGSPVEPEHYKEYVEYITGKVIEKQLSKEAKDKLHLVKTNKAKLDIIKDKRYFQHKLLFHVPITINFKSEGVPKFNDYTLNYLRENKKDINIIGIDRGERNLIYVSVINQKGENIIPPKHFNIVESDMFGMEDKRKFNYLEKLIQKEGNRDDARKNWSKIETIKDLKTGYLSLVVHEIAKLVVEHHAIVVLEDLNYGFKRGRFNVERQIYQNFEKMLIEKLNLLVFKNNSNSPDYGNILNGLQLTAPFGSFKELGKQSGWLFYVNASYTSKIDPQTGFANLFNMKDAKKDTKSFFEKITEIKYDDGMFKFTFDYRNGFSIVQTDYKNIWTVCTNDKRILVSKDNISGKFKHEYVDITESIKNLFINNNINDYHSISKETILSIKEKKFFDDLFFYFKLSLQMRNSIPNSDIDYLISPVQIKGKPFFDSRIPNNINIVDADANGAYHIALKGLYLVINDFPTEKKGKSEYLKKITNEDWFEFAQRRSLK
Test: cell_activity; PAM not stated; E. coli depletion, 30 C
In short: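 E. coli carrying arabinose-induced (0.2%) BMC nuclease, grown at 30° C., made electrocompetent and electroporated with 50-100 ng plasmid carrying gRNA against malQ. Transformants plated on selective M9-glucose agar with kanamycin/ampicillin (± nourseothricin), and growth scored after 48 h at 30° C.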

B1: malQ gRNA (BMC stem-loop + 24 nt spacer) ; malQ protospacer (ssRNA ; dsDNA)
RNA: GAUUUCUACUAUUGUAGAUGUGGCGGUACGUUGAUGCAUCGCG
DNA 1: GTGGCGGTACGTTGATGCATCGCG
DNA 2: CGCGATGCATCAACGTACCGCCAC
activity: > 99.9 % colony reduction
